This passage reports helicity results from patent US11345725B2, “Bis-thioether stapled peptides as inhibitors of PRC2 function” (Research Foundation of the City University of New York, priority 2019, dated 2022).

Starred links: 1 amine or outer side, 2 acyl side, 3 side chain; linkers in the order of their positions; H or OH if unused. Positions of bridges follow the written chain, without caps; N, C: chain ends. Residues, ends and D or L forms follow the SMILES beside them. Octanediyl(1,8) = C(CCCC[*:2])CCC[*:1]; X5 = C(CCC[*:1])CCC[*:2]; X6 = C(=C\C[*:2])/C[*:1]; X4 = C(CCC[*:2])CC[*:1]; X2 = C(CC[*:1])CC[*:2]; X3 = C(CC[*:2])C[*:1]; X1 = C(C[*:1])C[*:2]

A short description of the data set: circular dichroism. The note with it: deionized water; pH unbuffered; 20 °C; 25 uM. Background: CD spectra are sensitive to the conformation of chiral molecules.

`CC[C@H](C)[C@@H]1NC(=O)[C@@H](NC(=O)[C@H](Cc2ccc(O)cc2)NC(=O)[C@H](CCC(=O)O)NC(=O)[C@H](CCC(=O)O)NC(=O)[C@H](CC(N)=O)NC(=O)[C@@H](NC(=O)[C@@H](NC(C)=O)C(C)C)[C@@H](C)CC)CSCCCCCSC[C@@H](C(=O)N[C@@H](CC(N)=O)C(=O)N[C@H](C(=O)N2CCC[C@H]2C(=O)N[C@@H](Cc2ccccc2)C(=O)N[C@@H](CC(C)C)C(N)=O)[C@@H](C)O)NC(=O)[C@H](CCCCN)NC(=O)[C@H](Cc2c[nH]c3ccccc23)NC1=O` (Ac-VINEEYCIWKCNTPFL-NH2; linker 7-11 via X2) yielded a helicity of 5.68%.

`CC[C@H](C)[C@H](NC(=O)[C@H](CCCCN)NC(=O)[C@H](CC(=O)O)NC(=O)[C@@H](NC(=O)[C@@H](NC(C)=O)[C@@H](C)O)C(C)C)C(=O)N[C@@H](C)C(=O)N[C@@H](CO)C(=O)N[C@@H](C)C(=O)N[C@H]1CSCCCCCCCCSC[C@@H](C(=O)N2CCC[C@H]2C(=O)N[C@@H](CCC(N)=O)C(=O)N[C@@H](CC(N)=O)C(N)=O)NC(=O)[C@H](CCC(=O)O)NC(=O)[C@H](CCC(=O)O)NC(=O)[C@H](C)NC(=O)[C@H](CC(C)C)NC(=O)[C@H](C(C)C)NC(=O)[C@H](CO)NC1=O` (Ac-TVDKIASACSVLAEECPQN-NH2; linker 9-16 via Octanediyl(1,8)) yielded a helicity of 12.1%.

In turn, Ac-LCRNFMLHLVSMHDFLI-NH2 registered a helicity of 59.9%.

`CC[C@H](C)[C@H](NC(=O)[C@H](CC(C)C)NC(=O)[C@H](Cc1ccccc1)NC(=O)[C@H](CC(=O)O)NC(=O)[C@H](Cc1c[nH]cn1)NC(=O)[C@H](CCSC)NC(=O)[C@H](CO)NC(=O)[C@@H](NC(=O)[C@@H]1CSCCCCCSC[C@H](NC(=O)[C@H](CC(N)=O)NC(=O)[C@H](CCCNC(=N)N)NC(=O)[C@H](CS)NC(=O)[C@H](CC(C)C)NC(C)=O)C(=O)N[C@@H](CCSC)C(=O)N[C@@H](CC(C)C)C(=O)N[C@@H](Cc2c[nH]cn2)C(=O)N1)C(C)C)C(N)=O` (Ac-LCRNCMLHCVSMHDFLI-NH2; linker 5-9 via X2) registered a helicity of 61.6%.

`CC[C@H](C)[C@H](NC(=O)[C@@H]1CSCCCSC[C@H](NC(=O)[C@@H](NC(=O)[C@@H](NC(C)=O)C(C)C)[C@@H](C)CC)C(=O)N[C@@H](CCC(=O)O)C(=O)N[C@@H](CCC(=O)O)C(=O)N[C@@H](Cc2ccc(O)cc2)C(=O)N1)C(=O)N[C@@H](Cc1c[nH]c2ccccc12)C(=O)N[C@@H](CCCCN)C(=O)N[C@@H](CCCCN)C(=O)N[C@@H](CC(N)=O)C(=O)N[C@H](C(=O)N1CCC[C@H]1C(=O)N[C@@H](Cc1ccccc1)C(=O)N[C@@H](CC(C)C)C(N)=O)[C@@H](C)O` (Ac-VICEEYCIWKKNTPFL-NH2; linker 3-7 via X1) had a helicity of 12.7%.

In turn, `CC[C@H](C)[C@H](NC(=O)[C@@H]1CSC/C=C/CSC[C@H](NC(=O)[C@@H](NC(=O)[C@@H](NC(C)=O)C(C)C)[C@@H](C)CC)C(=O)N[C@@H](CCC(=O)O)C(=O)N[C@@H](CCC(=O)O)C(=O)N[C@@H](Cc2ccc(O)cc2)C(=O)N1)C(=O)N[C@@H](Cc1c[nH]c2ccccc12)C(=O)N[C@@H](CCCCN)C(=O)N[C@@H](CCCCN)C(=O)N[C@@H](CC(N)=O)C(=O)N[C@H](C(=O)N1CCC[C@H]1C(=O)N[C@@H](Cc1ccccc1)C(=O)N[C@@H](CC(C)C)C(N)=O)[C@@H](C)O` (Ac-VICEEYCIWKKNTPFL-NH2; linker 3-7 via X6) gave a helicity of 19%.

Compound `CC[C@H](C)[C@@H]1NC(=O)[C@@H](NC(=O)[C@H](CC(=O)O)NC(=O)[C@@H](NC(=O)[C@@H](NC(C)=O)[C@@H](C)O)C(C)C)CSCCCSC[C@@H](C(=O)N[C@@H](CC(C)C)C(=O)N[C@@H](CO)C(=O)N[C@H](C(=O)N[C@@H](CC(C)C)C(=O)N[C@@H](C)C(=O)N[C@@H](CCC(=O)O)C(=O)N[C@@H](CCC(=O)O)C(=O)N[C@H](C(=O)N2CCC[C@H]2C(=O)N[C@@H](CCC(N)=O)C(=O)N[C@@H](CC(N)=O)C(N)=O)C(C)C)C(C)C)NC(=O)[C@H](CO)NC(=O)[C@H](C)NC1=O` (Ac-TVDCIASCLSVLAEEVPQN-NH2; linker 4-8 via X1) showed a helicity of 23%.

`CC[C@H](C)[C@@H]1NC(=O)[C@@H](NC(=O)[C@H](Cc2ccc(O)cc2)NC(=O)[C@H](CCC(=O)O)NC(=O)[C@H](CCC(=O)O)NC(=O)[C@H](CC(N)=O)NC(=O)[C@@H](NC(=O)[C@@H](NC(C)=O)C(C)C)[C@@H](C)CC)CSCCCCCCSC[C@@H](C(=O)N[C@@H](CC(N)=O)C(=O)N[C@H](C(=O)N2CCC[C@H]2C(=O)N[C@@H](Cc2ccccc2)C(=O)N[C@@H](CC(C)C)C(N)=O)[C@@H](C)O)NC(=O)[C@H](CCCCN)NC(=O)[C@H](Cc2c[nH]c3ccccc23)NC1=O` (Ac-VINEEYCIWKCNTPFL-NH2; linker 7-11 via X4) yielded a helicity of 19.4%.

For `CC[C@H](C)[C@@H]1NC(=O)[C@@H](NC(=O)[C@H](Cc2ccc(O)cc2)NC(=O)[C@H](CCC(=O)O)NC(=O)[C@H](CCC(=O)O)NC(=O)[C@H](CC(N)=O)NC(=O)[C@@H](NC(=O)[C@@H](NC(C)=O)C(C)C)[C@@H](C)CC)CSC/C=C/CSC[C@@H](C(=O)N[C@@H](CC(N)=O)C(=O)N[C@H](C(=O)N2CCC[C@H]2C(=O)N[C@@H](Cc2ccccc2)C(=O)N[C@@H](CC(C)C)C(N)=O)[C@@H](C)O)NC(=O)[C@H](CCCCN)NC(=O)[C@H](Cc2c[nH]c3ccccc23)NC1=O` (Ac-VINEEYCIWKCNTPFL-NH2; linker 7-11 via X6), the helicity was found to be 24.2%.

`CC[C@H](C)[C@H](NC(=O)[C@H](CCCCN)NC(=O)[C@H](CC(=O)O)NC(=O)[C@@H](NC(=O)[C@@H](NC(C)=O)[C@@H](C)O)C(C)C)C(=O)N[C@@H](C)C(=O)N[C@@H](CO)C(=O)N[C@@H](C)C(=O)N[C@H]1CSCCCCCCCSC[C@@H](C(=O)N2CCC[C@H]2C(=O)N[C@@H](CCC(N)=O)C(=O)N[C@@H](CC(N)=O)C(N)=O)NC(=O)[C@H](CCC(=O)O)NC(=O)[C@H](CCC(=O)O)NC(=O)[C@H](C)NC(=O)[C@H](CC(C)C)NC(=O)[C@H](C(C)C)NC(=O)[C@H](CO)NC1=O` (Ac-TVDKIASACSVLAEECPQN-NH2; linker 9-16 via X5) gave a helicity of 13.7%.

`CC[C@H](C)[C@H](NC(=O)[C@@H]1CSCCCCCSC[C@H](NC(=O)[C@@H](NC(=O)[C@@H](NC(C)=O)C(C)C)[C@@H](C)CC)C(=O)N[C@@H](CCC(=O)O)C(=O)N[C@@H](CCC(=O)O)C(=O)N[C@@H](Cc2ccc(O)cc2)C(=O)N1)C(=O)N[C@@H](Cc1c[nH]c2ccccc12)C(=O)N[C@@H](CCCCN)C(=O)N[C@@H](CCCCN)C(=O)N[C@@H](CC(N)=O)C(=O)N[C@H](C(=O)N1CCC[C@H]1C(=O)N[C@@H](Cc1ccccc1)C(=O)N[C@@H](CC(C)C)C(N)=O)[C@@H](C)O` (Ac-VICEEYCIWKKNTPFL-NH2; linker 3-7 via X2) gave a helicity of 11%.

In turn, `CC[C@H](C)[C@H](NC(=O)[C@H](CCC(N)=O)NC(=O)[C@@H](NC(=O)[C@@H]1CSCCCCCSC[C@H](NC(=O)[C@H](CC(C)C)NC(=O)[C@H](Cc2c[nH]c3ccccc23)NC(=O)[C@H](CCC(=O)O)NC(C)=O)C(=O)N[C@@H](CCC(=O)O)C(=O)N[C@@H](CCCCN)C(=O)N[C@@H]([C@@H](C)O)C(=O)N1)[C@@H](C)O)C(=O)N[C@@H](CCC(=O)O)C(=O)N[C@@H](CCC(=O)O)C(=O)N[C@@H](Cc1ccccc1)C(N)=O` (Ac-EWLCEKTCTQIEEF-NH2; linker 4-8 via X2) yielded a helicity of 19.7%.

Consider `CC[C@H](C)[C@H](NC(=O)[C@H](CCC(N)=O)NC(=O)[C@@H](NC(=O)[C@@H]1CSCCCSC[C@H](NC(=O)[C@H](CC(C)C)NC(=O)[C@H](Cc2c[nH]c3ccccc23)NC(=O)[C@H](CCC(=O)O)NC(C)=O)C(=O)N[C@@H](CCC(=O)O)C(=O)N[C@@H](CCCCN)C(=O)N[C@@H]([C@@H](C)O)C(=O)N1)[C@@H](C)O)C(=O)N[C@@H](CCC(=O)O)C(=O)N[C@@H](CCC(=O)O)C(=O)N[C@@H](Cc1ccccc1)C(N)=O` (Ac-EWLCEKTCTQIEEF-NH2; linker 4-8 via X1), for which the helicity is 38.4%.

Take `CC[C@H](C)[C@@H]1NC(=O)[C@@H](NC(=O)[C@H](Cc2ccc(O)cc2)NC(=O)[C@H](CCC(=O)O)NC(=O)[C@H](CCC(=O)O)NC(=O)[C@H](CC(N)=O)NC(=O)[C@@H](NC(=O)[C@@H](NC(C)=O)C(C)C)[C@@H](C)CC)CSCCCCSC[C@@H](C(=O)N[C@@H](CC(N)=O)C(=O)N[C@H](C(=O)N2CCC[C@H]2C(=O)N[C@@H](Cc2ccccc2)C(=O)N[C@@H](CC(C)C)C(N)=O)[C@@H](C)O)NC(=O)[C@H](CCCCN)NC(=O)[C@H](Cc2c[nH]c3ccccc23)NC1=O` (Ac-VINEEYCIWKCNTPFL-NH2; linker 7-11 via X3): the helicity was 16.5%.

Take `CC[C@H](C)[C@H](NC(=O)[C@@H]1CSCCCCSC[C@H](NC(=O)[C@@H](NC(=O)[C@@H](NC(C)=O)C(C)C)[C@@H](C)CC)C(=O)N[C@@H](CCC(=O)O)C(=O)N[C@@H](CCC(=O)O)C(=O)N[C@@H](Cc2ccc(O)cc2)C(=O)N1)C(=O)N[C@@H](Cc1c[nH]c2ccccc12)C(=O)N[C@@H](CCCCN)C(=O)N[C@@H](CCCCN)C(=O)N[C@@H](CC(N)=O)C(=O)N[C@H](C(=O)N1CCC[C@H]1C(=O)N[C@@H](Cc1ccccc1)C(=O)N[C@@H](CC(C)C)C(N)=O)[C@@H](C)O` (Ac-VICEEYCIWKKNTPFL-NH2; linker 3-7 via X3): the helicity came out at 11.5%.

In turn, `CC[C@H](C)[C@H](NC(=O)[C@H](CCCCN)NC(=O)[C@H](CC(=O)O)NC(=O)[C@@H](NC(=O)[C@@H](NC(C)=O)[C@@H](C)O)C(C)C)C(=O)N[C@@H](C)C(=O)N[C@@H](CO)C(=O)N[C@@H](C)C(=O)N[C@H]1CSCCCCCCSC[C@@H](C(=O)N2CCC[C@H]2C(=O)N[C@@H](CCC(N)=O)C(=O)N[C@@H](CC(N)=O)C(N)=O)NC(=O)[C@H](CCC(=O)O)NC(=O)[C@H](CCC(=O)O)NC(=O)[C@H](C)NC(=O)[C@H](CC(C)C)NC(=O)[C@H](C(C)C)NC(=O)[C@H](CO)NC1=O` (Ac-TVDKIASACSVLAEECPQN-NH2; linker 9-16 via X4) had a helicity of 8.7%.

Take `CC[C@H](C)[C@H](NC(=O)[C@@H]1CSCCCCCCSC[C@H](NC(=O)[C@@H](NC(=O)[C@@H](NC(C)=O)C(C)C)[C@@H](C)CC)C(=O)N[C@@H](CCC(=O)O)C(=O)N[C@@H](CCC(=O)O)C(=O)N[C@@H](Cc2ccc(O)cc2)C(=O)N1)C(=O)N[C@@H](Cc1c[nH]c2ccccc12)C(=O)N[C@@H](CCCCN)C(=O)N[C@@H](CCCCN)C(=O)N[C@@H](CC(N)=O)C(=O)N[C@H](C(=O)N1CCC[C@H]1C(=O)N[C@@H](Cc1ccccc1)C(=O)N[C@@H](CC(C)C)C(N)=O)[C@@H](C)O` (Ac-VICEEYCIWKKNTPFL-NH2; linker 3-7 via X4): the helicity worked out at 19.4%.

With Ac-EWLREKTITQIEEF-NH2, the helicity came out at 20.9%.
